Reference: publication PMC7883444

Target: HRD1 (HMG-CoA reductase degradation protein 1, synoviolin) (UniProt Q86TM6)
Assay: anti-Myc co-IP, anti-Flag blot
Conditions: reference: WT Flag-PFKP; sites S386

binding against the reference: stronger
Substance: PFKP (platelet isoform of phosphofructokinase) (from UniProt Q01813) Flag-PFKP S386A
